# Data reported in paper PMC3621117 (The FEBS journal, 2013).
# B1: wild-type ExsD (natural protein)
# chain: VVGSDARSRGRVPGYASSSLYRESGIISARQLALLQRMLPRLRLEQLFRCEWLQQRLARGLALGREEVRQILLCAAQDDDGWCSELGDRVNLAVPQSMIDWVLLPVYGWWESLLDQAIPGWRLSLVELETQSRQLRVKSEFWSRVAELEPEQAREELARVAKCQARTQEQVAELAGKLETASALAKSAWPNWQRGMATLLASGGLAGFEPIPEVLECLWQPLCRLDDDVGAADAVQAWLHERNLCQAQDHFYWQS
# Biological target: the molecule itself
# Test: SEC
protein,measurement,value
B1,stoichiometry N,3
